Source: publication PMC8223533

What was measured:
[1] = biological target: SctV (SsaV) of the Salmonella enterica serovar Typhimurium SPI-2 injectisome, full-length, C-terminal 6xHis (Salmonella enterica serovar Typhimurium (strain 12023)) (UniProt P74856); assay: SEC; Superose 6 10/300, 50 mM Tris-HCl pH 8.0, 50 mM NaCl, 0.03% DDM, 5 mM DTT; DDM-solubilised SctV
[2] = biological target: SctV (SsaV) of the Salmonella enterica serovar Typhimurium SPI-2 injectisome, full-length, C-terminal 6xHis (Salmonella enterica serovar Typhimurium (strain 12023)) (UniProt P74856); assay: cryo-EM structure; DDM-solubilised full-length SctV at ~1 mg/ml on continuous carbon film; C9 symmetry imposed, refinement focused on the cytoplasmic domain; buffer pH 8.0
[3] = biological target: SctV (SsaV) of the Salmonella enterica serovar Typhimurium SPI-2 injectisome, full-length, C-terminal 6xHis (Salmonella enterica serovar Typhimurium (strain 12023)) (UniProt P74856); assay: negative stain EM; purified SctV at about 0.05 mg/ml, 2% uranyl acetate, continuous carbon grids
[4] = biological target: SctV (SsaV) of the Salmonella enterica serovar Typhimurium SPI-2 injectisome, full-length, C-terminal 6xHis (Salmonella enterica serovar Typhimurium (strain 12023)) (UniProt P74856); assay: cryo-EM 2D classification; amphipol A8-35-stabilised SctV on UltrAufoil gold grids without support film; 2D class averages only

Measured: stoichiometry N

SctV (SsaV) of the Salmonella enterica serovar Typhimurium SPI-2 injectisome, full-length, C-terminal 6xHis (from UniProt P74856 1-681) (natural protein)
9: all assays above
